From FireProtDB (doi:10.1021/bi00021a023)

Details: Saccharomyces cerevisiae (strain ATCC 204508 / S288c), DSC, reversible: yes; for ddG of mutation (higher = less stable) / denaturant m value / denaturant midpoint (higher = more stable) / unfolding free energy: pH 7, 22 °C, GdnHCl, Potassium phosphate 0.1 M; for Tm / change of melting temperature, mutant - wild type (higher = more stable) / unfolding enthalpy (calorimetric): pH 4.6, Thermal, Potassium acetate 0.1 M

Sequence of Cytochrome c isoform 1 N58I, P00044 (P00044 whole entry N58I, canonical isoform): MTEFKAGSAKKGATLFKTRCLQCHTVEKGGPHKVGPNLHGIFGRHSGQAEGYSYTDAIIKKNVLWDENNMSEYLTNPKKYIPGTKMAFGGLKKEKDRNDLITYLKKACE
Sequence of Cytochrome c isoform 1 G12S|N58I, P00044 G12S N58I (P00044 whole entry G12S/N58I, canonical isoform): as the sequence (P00044 whole entry N58I, canonical isoform) above, with G12S counted along it
Sequence of Cytochrome c isoform 1 wild type, P00044 (P00044 whole entry, canonical isoform): as the sequence (P00044 whole entry N58I, canonical isoform) above, with I58N counted along it
Sequence of Cytochrome c isoform 1 G12A, P00044 (P00044 whole entry G12A, canonical isoform): as the sequence (P00044 whole entry N58I, canonical isoform) above, with G12A, I58N counted along it
Sequence of Cytochrome c isoform 1 G12A|N58I, P00044 G12A N58I (P00044 whole entry G12A/N58I, canonical isoform): as the sequence (P00044 whole entry N58I, canonical isoform) above, with G12A counted along it

Substance	ddG of mutation (higher = less stable) (structure 1YCC)	denaturant m value (structure 1YCC)	denaturant midpoint (higher = more stable) (structure 1YCC)	unfolding free energy (structure 1YCC)	Tm (structure 1YCC)	change of melting temperature, mutant - wild type (higher = more stable) (structure 1YCC)	unfolding enthalpy (calorimetric) (structure 1YCC)	also measured
Cytochrome c isoform 1 G12A, P00044	3.5 kcal/mol	5.4 kcal/mol/M	0.44 M	2.36 kcal/mol				
Cytochrome c isoform 1 G12A|N58I, P00044 G12A N58I					47.4 °C	-1.8 °C	64.7 kcal/mol	
Cytochrome c isoform 1 G12S|N58I, P00044 G12S N58I	0.31 kcal/mol	4.75 kcal/mol/M	1.17 M	5.55 kcal/mol				
Cytochrome c isoform 1 N58I, P00044					62.2 °C	13 °C	101 kcal/mol	
Cytochrome c isoform 1 wild type, P00044								Tm: 49.2 °C; unfolding enthalpy (calorimetric): 78.8 kcal/mol; denaturant m value: 4.36 kcal/mol/M; denaturant midpoint (higher = more stable): 1.34 M; unfolding free energy: 5.86 kcal/mol
